Publication PMC9536202

Assays:
[1] = target: Motility associated killing factor A (MakA), wild type; assay: SEC
[2] = target: MakA^W243D; assay: SEC

Motility associated killing factor A (MakA), wild type (natural protein)
percent monomer [1]: 80%
percent oligomer [1]: 20%

MakA^W243D (natural protein)
percent oligomer [2]: 100%
